For the assay, the target named is T1, GST-TR2 (Homo sapiens, UniProt P13056).
T1 construct: pGEX-3x-TR2 were constructed by inserting full-length TR2 fragments to individual vectors; made in house; host or cells: E. coli BL21(DE3) pLysS
T1 sequence (P13056 1-603): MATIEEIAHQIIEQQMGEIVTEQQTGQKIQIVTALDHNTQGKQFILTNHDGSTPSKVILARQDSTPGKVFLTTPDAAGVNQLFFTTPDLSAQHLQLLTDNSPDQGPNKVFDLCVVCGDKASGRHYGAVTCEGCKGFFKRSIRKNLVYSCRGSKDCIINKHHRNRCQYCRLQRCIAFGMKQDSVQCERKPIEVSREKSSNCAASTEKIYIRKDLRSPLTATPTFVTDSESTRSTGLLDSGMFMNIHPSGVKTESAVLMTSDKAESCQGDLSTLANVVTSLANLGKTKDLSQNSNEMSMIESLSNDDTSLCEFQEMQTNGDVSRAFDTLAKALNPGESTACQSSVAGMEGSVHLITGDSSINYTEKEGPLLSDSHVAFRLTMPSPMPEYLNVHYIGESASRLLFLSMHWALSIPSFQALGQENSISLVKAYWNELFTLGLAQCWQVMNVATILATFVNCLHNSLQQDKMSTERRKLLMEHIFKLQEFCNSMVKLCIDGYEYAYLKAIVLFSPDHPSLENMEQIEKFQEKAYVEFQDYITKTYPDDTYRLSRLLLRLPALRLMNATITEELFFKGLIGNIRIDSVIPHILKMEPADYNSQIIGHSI
Kind of assay: GST-TR2 pull-down assay. In kind it is binding. Particulars: for Interaction with GST-TR2 fusion protein: 35S methionine-labeled proteins, Example 4; for Interaction with GST-TR2 in pull-down assay / Direct interaction with GST-TR2 fusion protein: in vitro translated [35S]-labeled proteins; for Interaction with GST-TR2 in pull-down assay: Example 1; for Direct interaction with GST-TR2 fusion protein: Example 2. As to the method:
Fusion proteins of GST-TR2, GST-ER segments and GST were obtained by transforming expressing plasmids into BL21(DE3) pLysS competent bacteria followed with 2-hour IPTG induction. GST-proteins were then purified by mixing Glutathione-Sepharose™ 4B (Pharmacia) into bacteria lysates on a rotating disk at 4° C. for 40 mm followed by washing with 1 mL NENT buffer (20 mM Tris-HCL (pH 8.0), 100 mM NaCl, 1 mM EDTA, 6 mM MgCl2, 1 mM Dithiothretiol, 8% Glycerol, 1 mM PMSF and 0.5% (v/v) NP-40). The ER, AR, RXRA., and TR2 proteins labeled with [35S] were generated in vitro by using the TNT reticulocyte lysate system (Promega). For the in vitro interaction, the glutathione-Sepharose bound GST-proteins were resuspended with 100 μl of interaction buffer (20 mM HEPES pH 7.9, 150 mM KCl, 5 mM MgCl2. 0.5 mM EDTA, 0.5 mM Dithiothretiol, 0.1% (v/v) NP-40, 0.1% (w/v) BSA and 1 mM PMSF) and mixed with 5 μl of […] at 4° C. for 3 h. After extensive washes with NENT buffer, the bound proteins were separated on an SDS/8% PAGE and visualized by using autoradiography.
GST alone and GST fusion proteins were purified by Glutathione-Sepharose 4B beads as instructed by manufacturer (Amersham Pharmacia). The pull-down assay was performed with 5 μl of in vitro-translated [^35S]-labeled proteins as described previously (Yeh, S. et al. (2000) Proc. Natl. Acad. Sci. USA 97, 11256-61).
GST control protein and GST-TR2 fusion protein were purified by glutathione-sepharose 4B beads as described by manufacture (Amersham. Biosciences). Five microliters of in vitro-translated 35S-methionine-labeled proteins was used to perform the Pull-down assay as described previously [4F].

No end group written: not given here.

For the substance AR: androgen receptor, SEQ ID NO:31, the “Interaction with GST-TR2 fusion protein” value is listed as “able to interact”, the “Interaction with GST-TR2 in pull-down assay” value is recorded as “can interact well” and the “Direct interaction with GST-TR2 fusion protein” value was “directly interact”.
“ER-#6: interaction blocker, ER fragment aa 312-340, as HA-tagged peptide, expression plasmid or cleaved peptide (ADQMVSALLDAEPPILYSEYDPTRPFSEA; also: HA tag (position not given here); UniProt P03372 312-340, looked up, fragment)”: the “Interaction of GST-TR2 with [35S]-labeled ER” value (increasing amounts of HA-ER-#6 peptide, absence of E2) is “inhibited”.
Turning to “RXR: retinoid X receptor, another member of the steroid receptor superfamily”, the “Interaction with GST-TR2 fusion protein” value is recorded as “not able to interact”, the “Interaction with GST-TR2 in pull-down assay” value was “not” and the “Direct interaction with GST-TR2 fusion protein” value is listed as “not”.
